Results taken from FireProtDB (doi:10.1111/j.1432-1033.1991.tb16033.x).

Settings: Escherichia coli (strain K12); pH 5.5; 25 °C; GdnHCl; Fluorescence; Sodium acetate 20 mM; NaCl 0.1 M; reversible: yes; whole UniProt chain shown

B1: Ribonuclease HI wild type, P0A7Y4 (protein)
chain: MLKQVEIFTDGSCLGNPGPGGYGAILRYRGREKTFSAGYTRTTNNRMELMAAIVALEALKEHCEVILSTDSQYVRQGITQWIHNWKKRGWKTADKKPVKNVDLWQRLDAALGQHQIKWEWVKGHAGHPENERCDELARAAAMNPTLEDTGYQVEV
**Q.** Which denaturant m value does the source give for B1 here?
**A.** The denaturant m value was 5.17 kcal/mol/M.

**Q.** What about the “denaturant midpoint (higher = more stable)” value of the same protein?
**A.** Its value is 1.79 M.

**Q.** What about the unfolding free energy of the same protein?
**A.** The unfolding free energy was 9.26 kcal/mol.
